Measurements taken from the nanobody polyreactivity screen of Harvey et al. (2022).

Experiment: yeast display, Sf9 membrane polyspecificity reagent, FACS + sequencing; frameworks hold sequencing errors
Method in brief: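 Synthetic nanobody libraries on Saccharomyces cerevisiae BJ5465 were galactose-induced for 36–48 hours, stained 1 hour at 4 °C with 10% biotinylated, detergent-solubilized Sf9 membrane reagent and enriched on streptavidin microbeads. FACS then separated cells into low and high (top ~1%) gates by anti-HA (expression) and streptavidin (reagent binding) fluorescence. Genes were colony-PCR amplified, MiSeq 2 × 250 sequenced and CDR-length filtered. A clone's polyreactivity label is that of its gate of origin.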

Sequence | polyreactivity (PSR sort gate)
KVQLVESGAGLVQAGGSLRLSCAASGITFGWYAMGWYRQAPGKERELVATINSGGSTNYADSVKGRFTISRDNAQNSVYLQMNSLKAEDTAVYYCAADGLIRWYDYWGQGTQVTVSS | low polyreactivity
KVQLVESGGGLFQAGGSLGLSCAPSGNTFYHYAMGWYRQSPGKERELVAGIRYNGGSTYYADSVKGRFTISRDNAKNTVYLHMKSLKPEDTAVYYCATIGYTGYAYRYGYWGQGTQVTVSS | high polyreactivity
KVQLVESGGGLVQAGGRLRISCAASGRICYSNVMGWSRQAPGKERELVAAIFSGGSTYYADSVKGRFTISRDNAKNTVYLQMNSLKPEDTAVYDCAADYYYPFDYWGQGTQVTVSS | low polyreactivity
KVQLVESGGGLVQAGGSLRLSCAASGFIFYYYAMGGYRQAPGKERELVAVLTESGSSTYYADSVKGRFTISRDNAKNSVYLQMNRLKPEDTAVYYCNADFWPYTGKYDYWGQGTQVTVSS | low polyreactivity
KVQLVESGGGLVQAGGSLRLSCAASGFIFYYYAMGWYRQAPGKERELVAAISTDGGSTYYADSVKGRFTISRDNAKNTVYLQMNSLKPEDTAVYYCNAPYYGWGYWPLEYIRYEYWGQGTQVTVSS | low polyreactivity
KVQLVESGGGLVQAGGSLRLSCAASGFTFYIYAMGWYRPAPGKEREVVAAISARGGSTYYADSVKGRFTISRDNAKTTGYLQMNSLKPEDTAVDYCNALYIYAEIYGRGFWGQGTQVTVSS | high polyreactivity
KVQLVESGGGLVQAGGSLRLSCAASGITFYDYDMGWYRQEHGKERELVSAITWNGGSTYYADSVKGRFTISRDNAKNTVYLQMNSLKPVDTAVYYCAAESYYIYYYWGQGTQVTVSS | high polyreactivity
KVQLVESGGGLVQAGGSLRLSCAASGNPLLFNALGWYRQAPGKERELVARITSSGASTYYADSVKGRFTISRDNAKNTLYLQMNSLKAEDTAVYYCAARTRTRRGYTSGDYWGQGSQVTVSS | high polyreactivity
KVQLVESGGGLVQAGGSLRLSCAASGRIFRYYAMGWSRQAPGKERELVAAISRGGGSTYYADSVKGRFTISRDNAKNTVYLQMNSLKPEDTAVYYCANSVGRGPIGYDYWGQGTQVTVSS | high polyreactivity
KVQLVESGGGLVQAGGSLRLSCAASGRTFVYYAMGWYRQAPGKERELVAAISSGGSTNYADSVKGRFTISRDNAKNTVYLQMNSLKPEDTAVYYCNADWGFPDVKETGVRFDYWGQGTQVTVSS | low polyreactivity
KVQLVESGGGLVQAGGSLRLSCAASGSIFHNYDMGWYRQAPGKERELVADISRGGDTNYADSVKGRFTISRDNAKNTVYLEMKSLKPEDTAVYYCNATYWILDFPWWRETFDYWGQGTQVTVSS | low polyreactivity
KVQLVESGGGLVQAGGSLRLSCAASGSIFWDNVMGWYRQAPGNERELVADIDSWDGGSTYYADSVKGRFTISRDNAKNTVYLQMNSLKPEDTAVYYCNSDVLWWRGGDDFWGKGTQVTVSS | low polyreactivity
KVQLVESGGGLVQAGGSLRLSCAASGSIFYVNAMGWYRQAPGKERELVARITLSGTSTYYADSVKGRLTISRDNAKNTVYLQMNSLKPEDTAVYYCAATYWSWISLRFYWGQGTQVTVSS | low polyreactivity
KVQLVESGGGLVQAGGSLRLSCAASGSTFQYYAMGWYRQAPGTERELVAAITSGGSTNYADSVKGRFTISRDNAKNTVYLQMNSLKPEDTAVYYCNADSSGWFPFDYWGQGTQVTVSS | low polyreactivity
KVQLVESGGGLVQAGGSLRLSCAPSGSIFPLNARGWYSQAPGKERELVAAISESGGRTYYADSVKGRFTISRDNAKNTVYLQMNSLNPADTAVYHCATVRLARKSAPYDYWGQGTQVTVSS | high polyreactivity
KVQLVESGGGLVQAGGSLRLSSADSGRIYVGYAIVWYRQEPGKEMEMVAGISRSGDSTYYADSVKGRFTISRDNAKNTVYLQMNSLKPEDTAVYYCAARINYWGYYYWGQGSQVTVSS | high polyreactivity
KVQVVESGGCLVQAGGSLRLSCAASGFSFGGYAMGCYRQAPGKDRELVAAINYRGGSTNYADSVKGRFTISRDNAKNTVYFQMNSLKPEDTAVYYCAASYFYWRANRGPRYYWGQGTQVTVSS | high polyreactivity
KVQVVESGGGFVQAGGSLRLSCAASGSTFVINAMGCYRQAPGKERELVAAITWGGGRTYYADSVKGRFTISRDNEKNTVYFQMNSLKPEDTAVYYCAAVGSGWKGDYWGQGTQVNVSS | low polyreactivity
KVQVVESGGGVVQAGGTLRLSCAASGSIAGNAMGWYRQAPGKERELVAAITFRGSGTYYADSVKGRFTISRDNAKNTVYLQINSLKPEDTAVYYCNAYRRGLSGYGYWGQGTQVTVSS | high polyreactivity
LVHHVESGGGLVQAGRSLRLTCAASGGTFFSNAMGWYRQSPGKERELVAGITSGGRTYYADAVKGRFTISRDNAMNTVYLQMNSMKPEDTAVFYCAAERFTRKYNYWGQGTQVTLSS | high polyreactivity
LVQLQESGGGLVQAGGSLRLSCAASGTISPGGYMAWYRQAPCTERELVASINVGGSTNYADSVKGRFTISRDNAKNTVYLQMNSLKPEDNALYYCAVWGRNRLQLSYWGQGTQVTVIS | low polyreactivity

Sequence | polyreactivity (PSR sort gate)
LVQLVESGGGIVQAGGSLRLSCAASGLISQRNVMGWYRQAPGKERELVARISTSSSGTYYADSVKGRFTISRDNAKNTVYLQMNSLKPEDTAVYYCAKRWSPYYRLYSWGQGTQVTVSS | high polyreactivity
LVQLVESGGGIVQAGGSLRLTCAASGRTFWGYSMGWYRQSPGKERELVAAISWTGGRTYYADSVKGRFTISRDYAKNSVNLQMNSLKPEDTAVYDCARPYTTYDGRYHYWGQGTQVTVSS | high polyreactivity
LVQLVESGGGLGQAGGSLRLSCAASGFTFTIYAMGWYRQAPGKERELVAAISSSGYSTYYADSVKGRFTISRDNAKNTVYFQMISLKPEDTAVYYCAARGYYRSHLGFLYDYWGQGTQVTVSS | high polyreactivity
LVQLVESGGGLLQAGGSPRLSCAASGFNFRGYAMGWYRQAPRKERELVAAINSGGSTNYADSVKGRFTISRDNAKNTVYLQMNSLNPEDTAVSYCAARVKTSYRYLRTYNYWGQGTQVTVSS | high polyreactivity
LVQLVESGGGLVEAGGSLRLSWAASGIIFYYYAMGWYRQAPGKEREFVAGIRWSSGSTYYADSVKGRFTISRDNAKNTVYLQMNSLKPEDTAVYYCAAAYLSWYGGYYYWGQGTQVTVSS | low polyreactivity
LVQLVESGGGLVQAGGSLRLSCAASGFIFAIYDMGWYRQAPGKERELVAAITSSSSTYADSVKGRFTISRDNAKNTVYLQMNSLKPEDTAVYYCAADTYSYRYSNDYWGQGTQVTVSS | low polyreactivity
LVQLVESGGGLVQAGGSLRLSCAASGGTIVYYTMGWYRHAPGKERELVATIDNSDGSTYYADSVKGRFTISRDNAKNTVDLQMNSLKPEDTPVYYCSKSLPHSTSRDYWGQGTQLTVSS | low polyreactivity
LVQLVESGGGLVQAGGSLRLSCAASGNIFYWYAMGWYRQAPRKEREFVAAITRSGGSTSYADSVKGRFTISRDNAKNTVYLQMNSLKPEDTAVYYCNATHWVHFQEFYSWGQGTQVTVSS | low polyreactivity
LVQLVESGGGLVQAGGSLRLSCAASGSTFFYAMGWYRQAPGKERELVAGIVWSGGSTYYADSVKGRFTISRDNAKNTVYLQMNSLKPEDTAVYYCPAEYTDDYWGQGTQVTVSS | low polyreactivity
LVQLVESGGGLVQAGGSLRLSGAASGSPFRQNAMGWYRQAPGKERELVAAITWRGDNTYYADSVKGRFTISRDNAKKPVYFQRNSLKPDDTAVDYCAARWSYRLYWGYGYWGQGTEVTVSS | low polyreactivity
LVQVVESGGGLVQAGGSLGLSCAASGRIFRDYAMGWYRPATGKERELVAAISWSTVHTYYADSVKGRFTISRDNAKNTVYLQMNCLKPEDTAVYYCAVDRPGLTYYDYDYWGQGTQVTVSS | low polyreactivity
PVQLEESGGGLVQAGGSLRLSCPASGTSAYYARGWYRQAPGKERALVAGISIGGSTNYADSVKGRFTITRDNAKNTVYVQMTSLKPEDTAVAYCSVDGYVAFSPDRNNYWGQGTQVTVSS | low polyreactivity
PVQLQESGGGLVQAGGSLRLSCAARGNIFDADIMGWYSQAPGKERELVACIADGGSTNYAHSVKGRFTISRDNAKNTVYLHMNSVKPEDTAVYYCAAIAYPDIPTCFDYYSDYFFRGQGTQVTVSS | low polyreactivity
PVQLVDSGGGLVQAGGSLRLSCAASGRTFGWYAMGWYRQAPGKERELVAAIRGVRTHYADSVKGRFTISRDNAKNTVYLQMNSLKPEDTAVYYCAARYYRWTKSEYGYWGQGTQVTVSS | high polyreactivity
PVQLVESGGGIVQAGGSLRLSCAASGTSFEYNAMGWSRPAPGKERELVAAITWSVGSTYYADSVKGRFTISRDNAKNTVYLQMNSLKPEDTAVYYCAAFDTASVYEFDYWGQGTQVTVSS | low polyreactivity
PVQLVESGGGLVHAGGRHRLSSAASGSIFNYYPMGWYRKAPGTERELVATISAGGSTNYADSVTGRFTISRDNAKNTVYLHKNRLKPEDTAVYYCNRARYYLTSYTYLTSYDYWGQGTQGTVSS | high polyreactivity
PVQLVESGGGLVQAGGSLRLSCAASGFTFSYNDMGWYRQAPGKERELVAAITSTGGTYYADSVKGRFTISRDNAKNTVYLQMNSLKPEDTAVYYCAADRIGGPGSYLYDYWGQGTQVTVSS | low polyreactivity
PVQLVESGGGLVQAGGSLRLSCAASGITIISYAMVWYRQAPGKERELVAAITKSGGRTYYADSVKGRFTISRDNAKNTVYLQMNSLKPEDTAVYYCAAYHLRDNRIGGGYWGQGTQVTVSS | high polyreactivity
PVQLVESGGGLVQAGGSLRLSCAASGNIFGVYPMGWYRQAPGKERELVAVITSSGSTYADSVKGRFTISRDNAKNTVFLQMNSLKPEDTAVYYCNTDGYYHPHGFDYYRYYYWGQGTQVTVSS | high polyreactivity
PVQLVESGGGLVQAGGSLRLSCAASGRIFAQYAMGWYRQAPGNERELVADISSGVRTYAASVKGRFTISRDNAKNTVSFQMNSLKPEDTAVYYFNAYYIIFTRNDYWGQGTQVTVSS | low polyreactivity
